Measured values as given in CN114891097A (INST MICROBIOLOGY CAS, dated 2022).

Target: SARS-CoV-2 RBD-hFc蛋白 (SARS-CoV-2 RBD fused to a human Fc tag) (SARS-CoV-2; human)

B1: S43纳米抗体 (alpaca-derived nanobody S43, with C-terminal 6xHis tag) (VHH)
VHH: QVQLQESGGGLVQPGGSLRLTCAPSGFTLDYYAIGWFRQAPGKEREGVSCISSNNSTYYADSVKGRFTISRDNAKNTVYLQMNSLKPEDTAVYYCAAEPDYSGVYYYTCGWTDFGSWGQGTQVTVSS
  Kd: 0.12 nM
